The labels stand for the following.
B1: 84712F12-hIgG4(S288P) (antibody, V domains shown)
VH: QIQLVQSGPELKKPGETVKISCKASGYTFTNYGMNWVKQAPGKGLKWMGWINTYTGEPTYVDDFKGRFAFSLETSASTAYLRINNLKNEDTATYFCAKFGNYVGAMDYWGQGTSVTVSS
VL: DIQVIQSPSSLSASLGDTITITCHASQNINVWLSWYQQKPGNIPKLLIYKASNLHTGVPSRFSGSGSGTGFTLTISSLQPEDIATYYCQQGQSYPYTFGGGTKLELK
notes: also called 847.12F12-hIgG4 (S228P); F847C.12F12
B2: TB001 (antibody, V domains shown)
VH: QVQLVQSGSELKKPGASVKVSCKASGYTFTNYGMNWVRQAPGQGLKWMGWINTNTGEPTYVEEFTGRFVFSLETSVSTAYLQISSLKAEDTAVYFCAPYDNFFAYWGQGTTVTVSS
VL: DIVLTQSPLSLPVTPGEPASISCRSSKSLLYKDGKTYLNWFLQKPGQSPQLLIYLMSTHASGVPDRFSGSGSGTDFTLKISRVEAEDVGVYYCQQLVDYPLTFGGGTKLEIK
notes: also called hTB001; IMT001-4-HCLC (TB001)
B3: 20D11.2C6-hIgG4(S228P) (antibody, V domains shown)
VH: EVQLQQSGPELVKPGASVKISCKASGYTFTDFYINWVKQSHGKSLEWIGDINPKNGGINYNPKFKIKATLTVDKSSSTSYMDLRGLTSEDSAVYYCTSGYGFPYWGQGTLVTVSA
VL: DIQMNQSPSSLSASLGDTITITCRASQNIYIWLSWYQQKPGNIPKLLIYKASNLHTGVPSRFSGSGSGTDFTLTISTLQPEDIATYFCLQGQSYPLTFGAGTKLEMKR
notes: also called QC200083
B4: 15G7.2A7-hIgG4(S228P) (antibody, V domains shown)
VH: EVQLQQSGPELVKPGASVKISCKASGYTFTDYYMNWVKQSHGKSLEWIGDINPNNGGTNYNQKFKGKATLTVDKSSSTAYMELRSLTSEDSAVYYCTSGYGFPYWGQGTLVTVSA
VL: DIQMNQSPSSLSASLGDTISITCRASQNINIWLSWYQQKPGNIPQLLIYKASNLHTGVPSRFSGSGSGTDFTLTISSLQPEDIATYYCLQGQSYPLTFGAGTKLVMK
notes: also called QC200074
B5: TB006 (antibody, human IgG4 S228P, kappa, V domains shown)
VH: QVQLVQSGAEVKKPGASVKVSCKASGYSFTNYYMHWVRQAPGQRLEWMGWIYPGSGNTNYNEKFQGRVTITADTSASTAYMELSSLRSEDTAVYYCSTAPGGFDVWGQGTTVTVSS
VL: DIVMTQTPLSLSVTPGQPASISCKSSKSLLHSDGITYLYWYLQKPGQSPQLLIYRMSNLASGVPDRFSGSGSGTDFTLKISRVEAEDVGVYYCAQMLEFPLTFGQGTKLEIKR
notes: also called hTB006; hTB006Ab
B6: 846T.14A2-hIgG4(S338P) (antibody, V domains shown)
VH: QIQLVQSGPELKKPGETVKISCKASGYTFTNYGMNWVKQAPGKGLKWMGWINTYTGEPTYAGDLKGRFAFSLETSASTAYLQINNLKNEDTATYFCVRYTMDYWGQGTSVTVSS
VL: QAVVTQESALTTSPGETVTLTCRSSTGAVTTSNYANWVQEKPDHLFTGLIGGINNRVPGVPARFSGSLIGDKAALTITGAQTEDEAIYFCALWYSNHWVFGGGTKLTVL
notes: also called F846TC.14A2; QC200122
B7: 846.1F5-hIgG4(S228P) (antibody, V domains shown)
VH: QIQLVQSGPELKKPGETVKISCKASGYTFTNYGMNWVKQAPGKGLKWMGWINTYTGEPSYADDFKGRFAFSLETSASTAYLQINNLKNEDMATYFCARWGGYDGDYYAMDYWGQGTSVTVSS
VL: NIMMTQSPSSLAVSAGEKVTMSCKSSQSVLYSSNQKNYLAWYQQKPGQSPKLLIYWASTRESGVPDRFTGSGSGTDFTLTISSVQPEDLAVYYCHQYLSSLTFGAGTKLELK
notes: also called F846C.1F5; QC200110
B8: 846T.16B5-hIgG4(S228P) (antibody, V domains shown)
VH: QIQLVQSGPELKKPGETVKISCKASGYTFTNYGMNWVKQAPGKGLKWMGWINTYTGEPAYADDFKGRFAFSLETSASTAYLQINNLKNEDMATYFCARWGGYDGDYYAMDYWGQGTSVTVSS
VL: NIMMTQSPSSLAVSAGEKVTMSCKSSQSVLYSSNQKNYLAWYQQKPGQSPKLLIYWASTRESGVPDRFTGSGSGTDFTLTISSVQAEDLAVYYCHQYLSSLTFGAGTKLELK
notes: also called F846T.16B5; F846TC.16B5
B9: 14H10.2C9-hIgG4 (S228P) (antibody, V domains shown)
VH: QIQLVQSGPELKKPGETVKISCKASGYTFTTYGMGWVKQAPGKDLKWMGWINTYSGVPTYADDFKGRFAFSLETSASTAYLQISNLKNEDTATYFCSTPYEYDGAYWGQGTLVTVSA
VL: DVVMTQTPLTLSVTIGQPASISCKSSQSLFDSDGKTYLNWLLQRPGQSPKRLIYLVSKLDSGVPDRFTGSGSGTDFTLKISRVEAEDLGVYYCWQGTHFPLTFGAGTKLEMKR
notes: also called QC200137; IMTAB0172
B10: 846.1H12-hIgG4(S228P) (antibody, V domains shown)
VH: QIQLVQSGPELKKPGETVKISCKASGYTFTNFGMNWVKQAPGKGLKWMGWINTYTGEPSYADDFKGRFAFSLETSASTAYLQINNLKNEDIATYFCARWGGYAGDYYAMDYWGQGTSVTVSS
VL: NIMMTQSPSSLAVSAGQKVTMSCKSSQSVLYSSSQKNYLAWYQQKPGQSPKLLIYWASTRESGVPDRFSGSGSGTDFTLTISSVQPEDLAVYYCHQYLSSLTFGAGTKLELK
notes: also called F846C.1H12; QC200172 IMTAB0196

T1 sequence (P17931 whole entry): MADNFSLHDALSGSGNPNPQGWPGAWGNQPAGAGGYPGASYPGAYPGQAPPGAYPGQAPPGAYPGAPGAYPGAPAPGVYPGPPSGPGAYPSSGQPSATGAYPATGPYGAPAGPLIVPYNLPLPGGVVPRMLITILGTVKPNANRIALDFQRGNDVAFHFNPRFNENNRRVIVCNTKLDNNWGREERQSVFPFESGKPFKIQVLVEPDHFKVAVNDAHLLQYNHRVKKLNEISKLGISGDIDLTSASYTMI

The first test addresses T1, Human Galectin-3 (Gal3) protein (human, UniProt P17931 1-250).
T1 construct: also called hGal3; rhGal-3
The test is described as follows: competition ELISA, hGal3 coated; competitor: biotinylated aggregated alpha-synuclein. (In general: An ELISA detects its analyte on a solid surface through an enzyme-linked reagent.)
For B1, the blocking efficacy is over 70%.

B2 displayed a blocking efficacy of over 70%.

Regarding B3, the blocking efficacy was over 70%.

On to B4, for which the blocking efficacy is over 70%.

Regarding B5, the blocking efficacy is over 70%.

Molecule B6 returned a blocking efficacy of over 70%.

For B7, the blocking efficacy was over 70%.

B8 displayed a blocking efficacy of over 70%.

B9 came in with a blocking efficacy of over 70%.

The target of the next test is T1, Human Galectin-3 (Gal3) protein. As to the kind of experiment: competition ELISA, hGal3 coated; competitor: biotinylated hTGFβR2.
In the case of B5, the blocking efficacy is over 90%.

In turn, B10 showed a blocking efficacy of over 90%.

With B9, the blocking efficacy is over 90%.

The values are drawn from patent publication US20250026838A1 (TRUEBINDING, published 2025).
